The source of these data is the DeepSol protein solubility set.

The nature of this data set: soluble on expression in E. coli; label from the status in PepcDB or PDB records.
As to “MRMDLSRIRNFSIIAHVDHGKSTLADRILELTHAVSDREMREQFLDSLELERERGITIKASAVRVTYRAKDGEEYVFHLIDTPGHVDFTYEVSRALAAVEGVLLVVDASQGVEAETLAKFYMALEHGHVIIPVINKIDLPNARPLEVALEVEEVLGLPADEAIFASGKTGEGVEEILEAIVQRIPPPKGDPEAPLKALIFDSVYDAYQGVIPYLRLFEGRVRPGDRIRIYSTGKEFTVDKVGVFTPQGLVATEALEAGEVGWLVAAIRDIHDVQVGDTITLADRPTPSPYPGFRPAKPVVFAGLYPVDSGDYGKLRDALEKLKLNDAALTFEPESSTALGFGFRCGFLGLLHAEIVQERLEREFGLSLIATAPSVVYKVRLKSGEEVEVHNPADLPDPTRIEEILEPYVKLTIFTPEEYVGSLMQLLQEKRGRLVNMNYLPGAQKRVELVYEAPFAEILYDFHDRLKSVSRGYASMDYEQAGYRPGDLVKVNVLVHGEVVDALTFIAHREKAYTMARAIVDKLAEVIPRQLFEVPIQAAIGGKIIARATVKALRKDVLAKCYGGDVTRKKKLLEKQKEGKKRLKAIGKVEVPQEAFLAVLSAGRDEPKG”, the “soluble on expression in E. coli” value is listed as “soluble”.
Turning to “NSDALVSIQTSKLPKTAYTATDFIKTAQYKYNHIVSNTVYELDLFQNAVSYADFAVLELELNLANNRDQQIFDSFINPAVTAYEKLGNSLGLFSNLQLDQYVDDTHYLLGYPLLKREKTSY”, the “soluble on expression in E. coli” value is “not soluble”.
Then “GGLPIVGDIFRFLDNGRTGLYENYKEFSTELNMTRESNGVKVTINDVISDGRTLSITYSLESEQDLGDDPIILGGLDIMDAHGSSGSGKMTKVTEKKYVGMVTTTHHDSNKKDKVNFRWNIEGIEIPDRKKSIQGHWNFALTVKSMDSKERTIGGSSEKEGIKANMEKVAMSPVSFILYYNQEVSKGARKEWDSVDVELTVKDDLGNDYSGEGNGGSGNDPYNIRWSATFQKLNENATKLIVTPRVHLRVHTPENHGGVEYVNGKEKKIEVPNKEAKKKDIVLDDIVIDLKK”, with “soluble”; and “MIKRNLLVIGLAVMLSACGFQLRGTGATELSVKEMDVSARNAYGPTVLQLREVLERSGVNVHAGAPYRLVLTNEQERERSATYNSGNRTAEYELTTKLDYSILGLNNLELMSDKLEVRKVYVRDGSNITGSEQEAKRAREEMRRDLVNAMVVRLQMLSPPQLDELQRKADERAQAEAAALEAARRQQAETPQQSPLEVPGN”, with “not soluble”.
“KEFFLAKHAEQKKRHHKYNDTEYNLEPNVKGSPGGLRDIQTILWVARRQYGTLNLHALAGEGFLLGSENALLASSQEFLWKVRYALHMLAGRSEDRLLFDYQVRIAGLLGYEDNDAKLAIERFMQKYYRVVMSIAELSDLIIQHFEEVILSDDDGTPQPINSRFQLHDGYIEATNPNVFRRTPFAMLEIFVLMAQHPEIKGVRADTIRLL”: the “soluble on expression in E. coli” value is “not soluble”.
Turning to “MGHHHHHHSHMVTQFKEKNESLQYETSSPTVQLKIPQLRVSSVSKSQPDGSGLLDVMYQVSKTSSVLEGSALQKLKNILPKQNKIECSGPVTHSSVDSYFLHGDLSPLCLNSKNGTVDGTSENTEDGLDRKDSKQPRKKRGRYRQYDHEIMEEAIAMVMSGKMSVSKAQGIYGVPHSTLEYKVKERSGTLKTPPKKKLRLPDTGLYNMTDSGTGSCKNSSKPV”, the “soluble on expression in E. coli” value is recorded as “soluble”.
As to “RHNLIQRKRELDKQNELYRAIISASFAFVFQIDTEARFSFVSPSVEDFTGYRPDMLNGEPISILGSDEQAIKEARDYLARVLNDGEAIQVRGHPIETRSGNTVYGDIRAEPIYEPSVASSARTTENIIGAQVMVRDAS”, the “soluble on expression in E. coli” value is “not soluble”.
Then “MGSDKIHHHHHHQEPENQTLETILNRKSVRKYKDRPVEKEKIDKLIRAGMAAPSSRDRRPWEFIIVTDRKALDTMAEGLPFARMLKETRQAIVVCGDTIKSSNAWFLDCSAASQNLLLAAESMGLGAVWTAVYPYPDRIEIVRKELRLPDHIMPLNVIPVGYPMQKETPKNKYNVQQIHHNGW”, with “not soluble”.
Take “HHHHHHESDDDDKLAFGAIQLDGDGNILQYNAAEGDITGRDPKQVIGKNFFKDVAPCTDSPEFYGKFKEGVASGNLNTMFEYTFDYQMTPTKVKVHMKKALSGDSYWVFVKRV”: the “soluble on expression in E. coli” value is given as “soluble”.
As for “MGSDKIHHHHHHMRLEELVNNNYNKLNENDLHIWKYICCNKRECCTISIDELAKKCNISRTTISRFTQKLSLEGFGEFKVRLKLELGVSNNFKSSSVEDVYQDYYKTIKDMKEKDFLEICRMIYGAKHLFVYGTGAVQIAAANELKRHFISVNKFFVTVHGEAEMNMVLETATDEDLIVIISLSGEKKSAVEYLKKVKVKNIPSISITKLSDNSIARLCDENLYIITRNIKIEGVVTCENVGQYFILIEILFLKYITYLGQLKKEDTIS”, the “soluble on expression in E. coli” value is recorded as “not soluble”.
For the sequence “MGSDKIHHHHHHMTKEINPFIVTGKIEPEYFCDRVKESERLVKSLTNGNNLVIISPRRMGKTGLIRFCYEKPEIKEEYYTFFIDILHTSSLREFTYLLGKEIYETLLPRSKKMASLFIQTVKSINGKFGFDPLTNLPTFNLELGDIDRPEYTLEEIFQCLIAADKPCIVAIDEFQQIAKYPEKNIEALLRTHIQTIENSNFIFAGSERHMMQEMFLSSSRPFYHSADILELKAIVPEIYIPFIADHFQKRKRHIEIENIEKVYRLFKGHTFYIQKTFNEAFADTPKGKECTLEIIKTAIDNLIAYNDTIFREILSNIPEKQKELLYAIAKVGEAENVTSAKFIKRYSLTSASSVQSATKKLLEKDIITEINKVYSVTDKFFGMWINTIYGNKYTL”, the “soluble on expression in E. coli” value is reported as “not soluble”.
On to “MGSDKIHHHHHHMTPPPDELLAVRQAVEWAITTRRSVRAFLPKPVTADTVEAILNTARFAATGVNIQPWKVHVLMGAAKDRVCAAIKQIDDDPAVAVMHADEWAYYPKEWTSPYVDRRRAVGWRLYSLLGIEKGDKARMQVQHGRNYQFFGAPVGLFFTVDRLMSEGSLLDYGMFLQNIMVVARTYGLSTCPQAAFMKYHRIIEQELGLGAHEKFVVGMSLGYADEERIENTLASEREPAASFTTFHEK”, for which the “soluble on expression in E. coli” value is reported as “not soluble”.
On to “MSLENIRNIAVIAHVDHGKTTMVDELLKQSGTFSEREQISERVMDSNDIEKERGITILSKNTAINYKGTKINIIDTPGHADFGGEVERVLKMIDGVLLLVDAQEGVMPQTKFVVKKALSLGLKPIVVINKIDKPAADPERVINEIFDLFVALDANDEQLDFAIVYAAAKNGYAKLDLNDESDNMEPLFKTILERVPAPSGSDENPLQLQVFTLGYDNFVGKIGIARIFNGVVKKNQSVMLAKADGTKVNGRISKLIGFMGLEKMDIEEAGSGDIVAIAGFEALDVGDSVVDPNNPMPLDPLHIEEPTLSIVFSVNDGPLAGTEGKHVTSNKIAERLEAEMKTNIAMKYESTGEGKFKVSGRGELQITILAENMRREGFEFCMGRPEVIVKVEDGVKTEPFEHLVIDVPEEFSGAVIEKLGKRKAEMKTMAPTGDGQTRLEFEIPARGLIGFRSQFLTDTKGEGVMNHSFLEFRPFSGAVEKRNNGALISMENGVALGYSLFNLQERGVLFIEPQTKVYTGMIIGEHSRPNDLDVNPIKGKNLTNVRASGSDDAIKLVPPRKLSLERALEWIEEDELVEVTPVNVRVRKRYLDPTQRKRMEKAKEGHHHHHH”, for which the “soluble on expression in E. coli” value is “soluble”.
As to “MVKIYLIEHVIGAVAYDENGNIVDYITNPRDLGKITEELLNNEKGIPFSATVELLKKVNPQEVVVENEAEVPKLQALGYRVSYEPYSKVSRIFRESLPKVAIDIKFASNEEDYYNFLHELSLEYTRRKLRSAAQKRDLLAIQAVRAMDDIDKTINLFSERLREWYSIHFPELDKLIEDHEEYATIVSRFGDRGFLTIDSLKELGFNEQRINRILDAAKKSIGADISEDDLSAMRMIANTILDLYNIRRNLNNYLEGVMKEVAPNVTALVGPALGARLLSIAGSLDELAKMPASTIQVLGAEKALFRALRSGGRPPKHGIIFQYPAIHTSPRWQRGKIARALAAKLAIAARVDAFSGRFIGDQLNEQLKKRIDEIKEKFAQHHHHHHHH”, the “soluble on expression in E. coli” value was “soluble”.
For the sequence “MSLTAGKMNVKEKIKDIHFYRAVSDISRPIADSTHTISQIGFYIVELMTAEGVRGQGYVLSFHYSPGAMEGALRDVCSFISAGEYAVYDTVLARADWDREAEYFGNTGINNCAIAAVNLAMWDAWGHTCRQPVWKMLGANRRRIPVYGSGGWISYTDQELLEEVLDYKKRGFKAVKIKVGSGSIERDAERLAKCREALGDSVKIMMDANQGFNVPDALELARRASSMGIQWFEEPVVHTDYAGYQLLRNQCGIALAMGEREYDFEALKQLSVRNALDLWQPDIVRLGGVEAWRESAALAEAFGLPVLPHYYKDYDVPLLCTVRSPYGAESFDWIDGIIDNAMEIENGFASPREGDGWGFRFREECMTEVEGHHHHHH”, the “soluble on expression in E. coli” value was “soluble”.
For “MQPNDITFFQRFQDDILAGRKTITIRDESESHFKTGDVLRVGRFEDDGYFCTIEVTATSTVTLDTLTEKHAEQENMTLTELKKVIADIYPGQTQFYVIEFKCL”, the “soluble on expression in E. coli” value is “soluble”.
With “MSRPPSRPRMMCARVLLLLSVTGLVLACETGPSSGDYEQAVMQDRVQRDMQMREKESVLPPGRREAFRGLNFYEVDPAYRYTVPLRRFETPDTVMIPESTGDLRPQQRIGEVTVPLPEGPEELVVFRGEGDTPRGRLWIPFADSTNRHATYKGGRYVDLTSTDSDSVVVDFNRAYNPTCAYNPDFACPLPPPENRIAVPVAAGEKRPTFGG”, the “soluble on expression in E. coli” value is “soluble”.
Consider “MLPDPPRDPFNNLDPAQTVRVLPRHLAGPGQADLETIWAFPFDDGWHLHQGLEGMVFAISPCARLWTRFAPKPEERGADTWTIGMDRAPFGPRAWEITFDATTPAELLRDVHTELLDLYLEDRHSEKNHLVEDPTAPHEVYTPLLTHGWSHSVKTDGTQTFLPPEGLGGVRHRYATTGSDGPVWRAWGGYPSAPHWQAQFSAGAPTTLAAAFTASLISTEPLHRAVKQIPFHTRRHLYVAPAAAPQPPSHLPPAPPSAPHPAGRARLEHHHHHH”, for which the “soluble on expression in E. coli” value is reported as “soluble”.
With “MVIVLVVDSFKDTSNGTSMTAFRFFEALKKRGHVMRVVAPHVDNLGSEEEGYYNLKERYIPLVTEISHKQHILFAKPDEKILRKAFKGADMIHTYLPFLLEKTAVKIAREMQVPYIGSFHLQPEHISYNMKLGWFSWFNMMLFSWFKSSHYRYIHHIHCPSKFIVEELEKYNYGGKKYAISNGFDPMFRFEHPQKSLFDTTPFKIAMVGRYSNEKNQSVLIKAVALSKYKQDIVLLLKGKGPDEKKIKLLAQKLGVKAEFGFVNSNELLEILKTCTLYVHAANVESEAIACLEAISVGIVPVIANSPLSATRQFALDERSLFEPNNAKDLSAKIDWWLENKLERERMQNEYAKSALNYTLENSVIQIEKVYEEAIRDFKNNPHLFKTLSLEHHHHHH” the entry was “soluble”; with “MPFRPQVIIGELMKTFGTNTNALPMSREETKTVEKFTRILKDAETDDLLIQSDDEEEVFGGIVDEEDWKPDDDDPSACVVPDKVNFSSGAAIDVAMVHSAVEFMTDVRTKKLRSFASMQRRYRFIKTQHDMQKLRVFAKNNEIQCSRVSQFSTLSGLLRTKVFEAIDDRISIDKFTLRRLAVQLNDEHVHIEGFQASDGWLKKWKKTNGLVSRHVTTFITRANYVNKELTEQAAKKFVEEVKAELATLDPDVVYNCDQSGFTKEQYCKRTLAPKGVKRVERLVQSKDALTHSYTILPMLSASGKLAPKLYVVLQEKGGKFPKKGHFSPDNLIIRANTSHIMNKQLMVDWVESAVCDPSMPTEVVLLLDAWPAWKNEGDVQAAALSGNTVHVRSIPPGATSFIQPCDLYFFCPLKNFVKKVNAYIIYSGITFKTSERDNLLRVISAVYRVFRAPIFQSCWKYGWIQGGYIDDQHVKVETPSKFCFKVSGYCSQKKTRDTMCQDTAFLLCPYCKKVLCFNHWVGCGFPAHKCKC”, “not soluble”.
